These results are taken from patent US20220281969A1 (ANTLERA THERAPEUTICS, published 2022).

The target in the assay is T1, recombinant mouse LRP5-His chimera (mouse, UniProt Q91VN0 31-1383).
T1 construct: extracellular domain; not shown: His tag
T1 sequence (looked up): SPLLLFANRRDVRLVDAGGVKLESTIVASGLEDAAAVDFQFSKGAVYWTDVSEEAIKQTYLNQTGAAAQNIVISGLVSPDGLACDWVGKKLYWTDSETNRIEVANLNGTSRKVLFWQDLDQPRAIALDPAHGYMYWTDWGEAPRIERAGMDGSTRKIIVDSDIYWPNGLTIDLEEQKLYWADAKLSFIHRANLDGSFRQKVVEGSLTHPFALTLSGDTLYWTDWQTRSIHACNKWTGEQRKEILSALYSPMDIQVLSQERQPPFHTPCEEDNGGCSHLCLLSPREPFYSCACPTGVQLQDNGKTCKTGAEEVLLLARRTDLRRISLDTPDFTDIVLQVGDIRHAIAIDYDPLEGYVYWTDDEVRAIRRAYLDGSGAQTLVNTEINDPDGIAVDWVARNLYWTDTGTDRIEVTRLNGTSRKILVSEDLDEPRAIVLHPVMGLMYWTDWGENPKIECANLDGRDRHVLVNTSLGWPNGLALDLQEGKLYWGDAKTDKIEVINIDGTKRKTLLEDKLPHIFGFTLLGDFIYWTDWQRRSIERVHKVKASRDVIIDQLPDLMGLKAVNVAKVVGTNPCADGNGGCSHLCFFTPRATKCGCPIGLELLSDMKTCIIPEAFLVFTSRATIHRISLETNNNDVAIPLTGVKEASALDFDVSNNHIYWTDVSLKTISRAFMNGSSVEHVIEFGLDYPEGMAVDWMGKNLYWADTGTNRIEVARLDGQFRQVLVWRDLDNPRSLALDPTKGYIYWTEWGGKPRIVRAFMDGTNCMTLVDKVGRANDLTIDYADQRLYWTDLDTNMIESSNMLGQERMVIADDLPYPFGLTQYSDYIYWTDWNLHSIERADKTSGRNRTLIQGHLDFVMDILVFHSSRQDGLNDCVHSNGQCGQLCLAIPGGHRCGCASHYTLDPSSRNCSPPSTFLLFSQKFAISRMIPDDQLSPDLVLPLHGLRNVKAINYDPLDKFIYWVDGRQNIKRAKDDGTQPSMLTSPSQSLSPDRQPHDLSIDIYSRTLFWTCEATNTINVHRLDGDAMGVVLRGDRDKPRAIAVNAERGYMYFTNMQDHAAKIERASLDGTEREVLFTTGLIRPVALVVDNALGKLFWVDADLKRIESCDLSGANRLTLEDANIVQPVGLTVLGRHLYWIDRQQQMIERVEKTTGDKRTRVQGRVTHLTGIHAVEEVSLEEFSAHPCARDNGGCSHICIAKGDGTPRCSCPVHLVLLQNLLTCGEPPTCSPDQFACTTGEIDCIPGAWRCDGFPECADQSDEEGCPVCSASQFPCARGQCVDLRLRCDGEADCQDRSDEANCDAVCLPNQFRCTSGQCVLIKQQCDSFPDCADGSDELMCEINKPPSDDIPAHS
The experiment in a line: single-point ELISA, IgG1 on coated antigen. (An ELISA detects its analyte on a solid surface through an enzyme-linked reagent.)

B1: LRP6-E3 IgG1 antibody (antibody, V domains shown)
VH: EVQLVESGGGLVQPGGSLRLSCAASGFNLYYYSMHWVRQAPGKGLEWVASIYSSYGYTYYADSVKGRFTISADTSKNTAYLQMNSLRAEDTAVYYCARYAGYYYYPWAYYGWPFSGLDYWGQGTLVTVSS
VL: DIQMTQSPSSLSASVGDRVTITCRASQSVSSAVAWYQQKPGKAPKLLIYSASSLYSGVPSRFSGSRSGTDFTLTISSLQPEDFATYYCQQAGSAPYHLITFGQGTKVEIKR
notes: Tested as purified full length IgG1
In the case of B1, the binding result was “no binding”.
